Data published in article PMC6378684 (Journal of Molecular Biology, 2019).
Values belong to the molecule of their own block, whether it stands above or below them.

Key:
[1] = target: T1, Cut7MD (fission yeast kinesin-5 Cut7 motor domain) (Schizosaccharomyces pombe, UniProt P24339); assay: cryo-EM structure, […] Å; type: binding; conditions: nucleotide pocket, with Mg; bound to S. pombe microtubules
T1 construct: monomeric motor domain, residues 67-432, lacks N-terminal extension; His6 tag removed by TEV; expressed in E. coli BL21*(DE3)
T1 sequence (P24339 67-432): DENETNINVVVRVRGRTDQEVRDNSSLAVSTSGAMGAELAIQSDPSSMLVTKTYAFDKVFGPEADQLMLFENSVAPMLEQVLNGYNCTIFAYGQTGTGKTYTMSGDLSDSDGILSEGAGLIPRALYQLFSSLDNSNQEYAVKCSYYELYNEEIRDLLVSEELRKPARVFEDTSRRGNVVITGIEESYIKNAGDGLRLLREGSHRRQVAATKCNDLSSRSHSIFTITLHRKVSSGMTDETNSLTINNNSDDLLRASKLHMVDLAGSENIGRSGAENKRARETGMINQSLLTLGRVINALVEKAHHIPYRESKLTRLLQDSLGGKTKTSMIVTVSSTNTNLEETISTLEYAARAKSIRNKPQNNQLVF

[2] = target: T1, Cut7MD (fission yeast kinesin-5 Cut7 motor domain); assay: microtubule-stimulated ATPase, pyruvate kinase / lactate dehydrogenase coupled; type: biochemical; conditions: 5 mM ATP; epothilone-stabilised S. pombe microtubules; 1 mM MgCl2, pH 8.0, 32 °C
[3] = target: S. pombe tubulin microtubules (Sp_tub MTs), epothilone-stabilised (S. pombe) (UniProt P04688)
[4] = target: T1, Cut7MD (fission yeast kinesin-5 Cut7 motor domain); assay: microtubule-stimulated steady-state ATPase, enzyme-coupled; type: biochemical; conditions: 3.8 μM motor; 100 nM mammalian (bovine) microtubules
[5] = target: Mammalian brain tubulin microtubules (Mam_tub MTs), paclitaxel-stabilised (bovine), Q6B856
Mammalian brain tubulin microtubules (Mam_tub MTs), paclitaxel-stabilised (bovine), Q6B856, sequence (Q6B856 whole entry, looked up): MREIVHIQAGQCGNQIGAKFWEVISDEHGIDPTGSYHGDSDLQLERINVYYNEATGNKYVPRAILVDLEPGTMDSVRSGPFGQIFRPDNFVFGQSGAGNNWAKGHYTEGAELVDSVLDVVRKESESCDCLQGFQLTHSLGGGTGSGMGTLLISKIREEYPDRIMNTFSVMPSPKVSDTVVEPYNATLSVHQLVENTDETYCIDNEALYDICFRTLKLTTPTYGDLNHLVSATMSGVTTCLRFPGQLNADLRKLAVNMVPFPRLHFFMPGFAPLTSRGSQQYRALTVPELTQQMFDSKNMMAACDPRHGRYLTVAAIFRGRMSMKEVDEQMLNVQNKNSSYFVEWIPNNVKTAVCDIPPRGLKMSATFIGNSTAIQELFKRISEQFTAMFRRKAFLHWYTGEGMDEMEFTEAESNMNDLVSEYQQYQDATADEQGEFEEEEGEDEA

S. pombe tubulin microtubules (Sp_tub MTs), epothilone-stabilised (S. pombe), sequence (P04688 whole entry, chain 1 of 2, the tested form may be a part): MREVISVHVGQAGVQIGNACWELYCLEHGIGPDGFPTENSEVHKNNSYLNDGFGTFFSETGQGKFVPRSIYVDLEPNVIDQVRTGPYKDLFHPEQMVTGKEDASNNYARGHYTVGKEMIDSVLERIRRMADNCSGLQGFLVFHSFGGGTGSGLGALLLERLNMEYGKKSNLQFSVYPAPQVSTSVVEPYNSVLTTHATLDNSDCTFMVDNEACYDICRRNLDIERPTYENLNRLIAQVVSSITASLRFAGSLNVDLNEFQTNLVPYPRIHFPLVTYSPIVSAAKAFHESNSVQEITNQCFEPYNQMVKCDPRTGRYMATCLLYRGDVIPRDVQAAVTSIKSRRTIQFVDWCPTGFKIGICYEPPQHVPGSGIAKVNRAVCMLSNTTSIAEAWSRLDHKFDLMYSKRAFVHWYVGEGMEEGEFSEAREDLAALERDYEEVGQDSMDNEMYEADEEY
S. pombe tubulin microtubules (Sp_tub MTs), epothilone-stabilised (S. pombe), sequence (P05219 whole entry, chain 2 of 2, further chain, the tested form may be a part): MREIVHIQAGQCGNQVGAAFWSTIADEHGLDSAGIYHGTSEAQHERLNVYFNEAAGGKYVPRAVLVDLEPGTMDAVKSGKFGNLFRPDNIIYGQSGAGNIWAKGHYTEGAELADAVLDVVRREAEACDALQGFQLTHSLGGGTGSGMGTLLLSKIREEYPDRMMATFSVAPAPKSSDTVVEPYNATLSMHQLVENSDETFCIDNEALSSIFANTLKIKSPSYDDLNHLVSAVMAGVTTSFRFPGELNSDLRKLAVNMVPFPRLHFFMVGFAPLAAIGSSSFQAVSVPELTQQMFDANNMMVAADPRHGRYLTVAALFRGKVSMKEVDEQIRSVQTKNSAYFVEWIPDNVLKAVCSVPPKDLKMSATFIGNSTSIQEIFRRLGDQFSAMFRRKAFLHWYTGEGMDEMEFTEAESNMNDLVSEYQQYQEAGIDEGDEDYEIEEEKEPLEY

Molecule: Nc1ncnc2c1ncn2[C@@H]1O[C@H](COP(=O)(O)OP(=O)(O)NP(=O)(O)O)[C@@H](O)[C@H]1O [AMPPNP, adenosine 5′-(β,γ-imido)triphosphate]
- cryo-EM structure, 4.5 Å [1]: strong density in the nucleotide binding pocket corresponding to bound Mg-AMPPNP

Molecule: Nc1ncnc2c1ncn2[C@@H]1O[C@H](COP(=O)(O)OP(=O)(O)OP(=O)(O)O)[C@@H](O)[C@H]1O [ATP]
- microtubule-stimulated ATPase, pyruvate kinase / lactate dehydrogenase coupled [2]: we measured the steady-state ATPase activity of Cut7MD on Sp_tub MTs and Mam_tub MTs

- K0.5MT of the MT-stimulated steady-state ATPase of Cut7MD (Hanes–Woolf plot) [3]: 13.4 nM
- K0.5MT of the MT-stimulated steady-state ATPase of Cut7MD (Michaelis–Menten fit) [3]: 13.9 nM
- Vmax of the MT-stimulated steady-state ATPase of Cut7MD (Hanes–Woolf plot) [3]: 1.17 ATP/s
- Vmax of the MT-stimulated steady-state ATPase of Cut7MD (Michaelis–Menten fit) [3]: 1.14 ATP/s
Molecule: Cut7 motor domain (Cut7MD), residues 67–432 of the fission yeast kinesin-5 Cut7 (from UniProt P24339 67-432) (domain or fragment)

Molecule: N[C@@H](CSC(c1ccccc1)(c1ccccc1)c1ccccc1)C(=O)O [STLC, (+)-S-trityl-L-cysteine]
- % of their uninhibited rates at 2 μM and 20 μM [4]: Cut7MD is not detectably inhibited by STLC

- K0.5MT of the MT-stimulated steady-state ATPase of Cut7MD (Hanes–Woolf plot) [5]: 14.3 nM
- K0.5MT of the MT-stimulated steady-state ATPase of Cut7MD (Michaelis–Menten fit) [5]: 19.9 nM
- Vmax of the MT-stimulated steady-state ATPase of Cut7MD (Hanes–Woolf plot) [5]: 1.19 ATP/s
- Vmax of the MT-stimulated steady-state ATPase of Cut7MD (Michaelis–Menten fit) [5]: 1.25 ATP/s
B1: Cut7 motor domain (Cut7MD), residues 67–432 of the fission yeast kinesin-5 Cut7, P24339 67-432 (domain or fragment)
chain: T1 sequence (P24339 67-432)
